Test results from patent publication US20160194391A1 (AstraZeneca / MedImmune, published 2016).
Where a chain is given by its changes, count along the chain named. Several values for one entry are separate records, joined by “and”; a condition that tells them apart may be missing. Equal values may be shown once.

Assays:
IL-23 p40-p19-His [1] = molecular target: T1, IL-23 p40-p19-His (human); experiment: ELISA on IL-23 p40-p19-His (coated directly or through anti-His)
T1 construct: Single-chain fusion coated on the IL-23 ELISA plates; also called p40:p19-6×HIS
T1 chain: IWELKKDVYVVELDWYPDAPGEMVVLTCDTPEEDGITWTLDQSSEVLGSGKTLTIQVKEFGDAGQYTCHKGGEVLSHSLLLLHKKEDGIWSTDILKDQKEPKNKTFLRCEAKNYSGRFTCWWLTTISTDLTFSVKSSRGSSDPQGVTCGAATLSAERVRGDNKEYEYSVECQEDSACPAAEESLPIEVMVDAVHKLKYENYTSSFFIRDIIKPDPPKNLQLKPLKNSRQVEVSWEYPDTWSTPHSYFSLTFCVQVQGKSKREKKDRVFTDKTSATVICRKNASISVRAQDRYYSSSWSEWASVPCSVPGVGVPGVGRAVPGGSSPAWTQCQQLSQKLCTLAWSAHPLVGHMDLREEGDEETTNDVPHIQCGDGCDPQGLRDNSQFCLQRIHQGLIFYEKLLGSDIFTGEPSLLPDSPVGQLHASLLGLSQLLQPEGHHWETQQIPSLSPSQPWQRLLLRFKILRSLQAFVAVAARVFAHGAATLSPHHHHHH
Protocol: For the indirect binding method anti-His antibody (Cat # A00613, GenScript Corp., New Jersey, USA) was added to the plates in 100 μl/well of PBS at 0.01-0.02 ug/ml. Plates were incubated 1 hour at 37C, or overnight at 4C. To block non-specific binding 100 μl/well PBS containing 10% goat serum (Cat #16210-072, Invitrogen, USA) was added to each well, after which plates were rinsed 5 times with de-ionized water. IL-23 p40-p19-His (SEQ ID 4) in 100 μl/well PBS/10% goat serum at 0.5 μg/ml was added and incubated for 1 hour at room temperature.
For the direct binding method IL-23 p40-p19-His (SEQ ID 4) was added to an ELISA plate in 100 μl PBS at 0.5 μg/ml. Plates were incubated 1 hour at 37C, or overnight at 4C. To block non-specific binding 100 μl/well PBS containing 10% goat serum (Cat #16210-072, Invitrogen, USA) was added to each well. Plates were incubated 1 hour at room temperature.
After IL-23 binding, plates were rinsed 5 times with de-ionized water. To each well was added 50 μl PBS/10% goat serum. Test samples were then added at 50 μl/well. Plates were incubated 1 hour at room temperature and were rinsed 5 times with de-ionized water. To each well was added 100 μl peroxidase-conjugated goat anti-rabbit IgG (Cat. #111-035-008, Jackson Immuno Research) diluted 1:5000 in PBS/10% goat serum. Plates were incubated 1 hour at room temperature, then washed 5 times with de-ionized water. TMB substrate (Thermo Scientific, Rockford, Ill., USA) was added at 100 μl/well. The reaction was stopped with 100 μl N H₂SO₄ (JT Baker, Phillipsburg, N.J., USA). Absorbance was measured at 450 nm using a Molecular Devices M2 plate reader.

[2] = molecular target: T2, human dimeric IL-23 (eBiosciences 34-8239) (human, UniProt P29460 23-328; Q9NPF7 20-189); experiment: cell-based or functional assay
T2 sequence (looked up) 1: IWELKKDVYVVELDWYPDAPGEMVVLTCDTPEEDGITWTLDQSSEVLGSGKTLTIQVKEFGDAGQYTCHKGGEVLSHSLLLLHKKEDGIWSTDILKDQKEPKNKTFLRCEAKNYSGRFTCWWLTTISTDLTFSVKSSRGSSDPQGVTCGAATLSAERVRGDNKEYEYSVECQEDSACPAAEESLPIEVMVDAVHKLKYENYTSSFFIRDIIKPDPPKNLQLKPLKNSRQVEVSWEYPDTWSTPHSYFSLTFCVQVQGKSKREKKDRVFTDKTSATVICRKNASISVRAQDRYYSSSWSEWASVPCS
T2 sequence (looked up) 2: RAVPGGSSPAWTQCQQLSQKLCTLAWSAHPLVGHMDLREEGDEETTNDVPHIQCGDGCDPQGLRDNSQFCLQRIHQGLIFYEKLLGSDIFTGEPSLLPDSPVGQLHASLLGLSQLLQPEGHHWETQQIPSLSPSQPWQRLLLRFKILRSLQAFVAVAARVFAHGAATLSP

human IL-12 = molecular target: T3, human IL-12 (human, UniProt P29459 23-219; P29460 23-328); experiment: cell-based or functional assay
T3 sequence (looked up) 1: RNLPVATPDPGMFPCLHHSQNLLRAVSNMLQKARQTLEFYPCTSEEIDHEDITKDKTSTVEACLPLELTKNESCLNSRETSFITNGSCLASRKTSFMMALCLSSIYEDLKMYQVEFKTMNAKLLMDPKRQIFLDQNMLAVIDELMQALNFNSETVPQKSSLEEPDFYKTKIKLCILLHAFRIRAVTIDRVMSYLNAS
T3 sequence (looked up) 2: T2 sequence (looked up) 1

IL-23 p40-p19-His [3] = molecular target: T1, IL-23 p40-p19-His; experiment: ELISA on IL-23 p40-p19-His
monkey IL-12 (macaque) [4] = molecular target: T4, monkey IL-12 (macaque) (macaque, UniProt P48091 23-219; P48095 23-328); experiment: cell-based or functional assay
T4 sequence (looked up) 1: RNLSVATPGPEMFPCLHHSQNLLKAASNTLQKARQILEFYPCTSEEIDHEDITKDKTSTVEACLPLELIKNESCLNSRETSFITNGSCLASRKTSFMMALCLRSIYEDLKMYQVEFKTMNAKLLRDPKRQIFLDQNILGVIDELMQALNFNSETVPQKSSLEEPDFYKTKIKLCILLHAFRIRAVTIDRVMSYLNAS
T4 sequence (looked up) 2: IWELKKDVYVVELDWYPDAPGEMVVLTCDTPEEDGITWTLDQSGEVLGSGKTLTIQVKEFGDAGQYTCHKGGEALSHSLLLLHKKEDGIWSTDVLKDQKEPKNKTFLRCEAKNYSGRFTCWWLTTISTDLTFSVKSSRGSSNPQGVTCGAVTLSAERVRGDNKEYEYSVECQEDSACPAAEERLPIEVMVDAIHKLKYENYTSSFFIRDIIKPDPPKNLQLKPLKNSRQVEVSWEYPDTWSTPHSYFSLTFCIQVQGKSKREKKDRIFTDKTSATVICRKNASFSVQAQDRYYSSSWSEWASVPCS

monkey IL-12 (macaque) [5] = molecular target: T4, monkey IL-12 (macaque); experiment: cell-based or functional assay; remark: listed apart in the source
[6] = molecular target: T2, human dimeric IL-23 (eBiosciences …); experiment: cell-based or functional assay; remark: listed apart in the source
human IL-6 = human IL-6 (human, UniProt P05231 30-212); experiment: cell-based or functional assay
[7] = molecular target: T2, human dimeric IL-23 (eBiosciences …); experiment: SPR, bispecific held on captured IL-6 (~240 RU), human dimeric IL-23 as analyte (3-25 nM)
Protocol: SPR of bispecific scFvs were carried out as previously described for measuring the anti-IL-6 moiety; however, protocol modifications were required in order to determine the binding kinetics of the anti-IL-23 scFv, 31A12. Briefly, IL-23 binding by the bispecific was performed by first immobilizing the bispecific with IL-6 as described, but at a constant density (˜240 RU). Binding and dissociation of a recombinant human dimeric IL-23 (34-8239, eBiosciences, San Diego, Calif.) was assayed in concentrations ranging from 3 to 25 nM using the same parameters detailed above.

3×FLAG-IL-6 = molecular target: T5, 3×FLAG-IL-6 (human); experiment: SPR, 3×FLAG-IL-6 captured by anti-FLAG M2 on protein G, bispecific as analyte
T5 construct: it may hold the pre-pro-trypsin leader
T5 sequence (chain, as listed by the source limits assumed): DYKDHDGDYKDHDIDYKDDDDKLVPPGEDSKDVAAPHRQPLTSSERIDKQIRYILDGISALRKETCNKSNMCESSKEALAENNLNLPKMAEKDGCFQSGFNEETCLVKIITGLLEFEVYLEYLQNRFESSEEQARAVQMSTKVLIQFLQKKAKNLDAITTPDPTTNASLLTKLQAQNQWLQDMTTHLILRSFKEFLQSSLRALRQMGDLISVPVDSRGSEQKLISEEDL

B1: 16C6 chimeric mAb (antibody, V domains shown)
VH: QSVEESGGRLVTPGTPLTLTCTVSGFSLNSYSMSWVRQAPGKGLEWIGVIGLGGSAYYASWAKGRFTISGASTTVDLKITSPTTEDTATYFCARATYSDDNIWGPGTLVTVSS
VL: DVVMTQTPSSTSAAVGGTVTIKCQASQSISSWLSWYQQKPGQRPKPLIVRASTLASGVPSRFKGNRSGTEYTLTISGVQREDAAAYYCLGGDGNVSNFGGGTKVVVVR
notes: Rabbit/human chimeric IgG (human IgG1, kappa); HEK293
- binding result (IL-23 p40-p19-His [1]): binds
- EC50, inhibition of IL-23 induced IL-17 secretion by mouse spleen cells [2]: 0.219 ng/mL

B2: 34E11 chimeric mAb (antibody, V domains shown)
VH: QEQLKESGGGLVTPGGSLTLTCTVSGFSLSTYDINWVRQAPGKGLEWIGYIYRGSPYYADWAKGRFTISSTSTTVGLKITSPTTVDTATYFCTRNLYSVNVLWGPGTLVTVS
VL: LVMTQTPSSTSAAVGDTVTIKCQASQSISSRLAWYQQKPGQPPKLLIYSASTLASGVPSRFKGSGSGTDYTLTISGVQREDAATYYCLGSYSNTIRTFGAGTKVEIKR
notes: Rabbit/human chimeric IgG (human IgG1, kappa); HEK293; also called 34E11 clone
- binding result (IL-23 p40-p19-His [1]): binds
- EC50, inhibition of IL-23 induced IL-17 secretion by mouse spleen cells [2]: 0.05 ng/mL

B3: 4F3 chimeric mAb (antibody, V domains shown)
VH: QSVEESGGRLVTPGTPLTLTCAVSGFSLSGYTMIWVRQAPGEGLEWIGIISSSGNTYYASWVKGRFTISKTSTTVDLKMISPTTEDTATYFCARGSGAYISDYFNVWGPGTLVTVSS
VL: FELTQTPSSVEAAVEGTVTIKCQASQSIDSWLSWYQQKPGQPPKLLIYSASKLAPGVPSRFSGSGSGTQFTLTIGDLECADAATYYCQSYYDVNAGYGFGGGTEVVVVR
notes: Rabbit/human chimeric IgG (human IgG1, kappa); HEK293; also called mAb 4F3
- IC50 (read off the curve) (interferon-gamma from NK92 cells, OD450) (human IL-12): ~2 ng/mL
- EC50: concentration necessary to inhibit bioactivity of 50 pg/ml of IL-6 [2]: 2.34 ng/mL
- binding result (IL-23 p40-p19-His [3]): binds

B4: 5C5 chimeric mAb (antibody, V domains shown)
VH: QSVEESGGRLVTPGTPLTLTCTVSGFSLSSYTMIWVRQAPGEGLEWIGIISAGGSAYYASWVNGRFTISKTSTTVDLKMTSPTTGDTATYFCARGSGTYTSDYFNIWGPGTLVTVSS
VL: B3 VL with E15G, S33A, P55T, G75S, V93A, E104K
notes: Rabbit/human chimeric IgG (human IgG1, kappa); HEK293; also called mAb 5C5
- IC50 (read off the curve) (interferon-gamma from NK92 cells, OD450) (human IL-12): ~0.9 ng/mL
- EC50: concentration necessary to inhibit bioactivity of 50 pg/ml of IL-6 [2]: 1.91 ng/mL
- binding result (IL-23 p40-p19-His [3]): binds

B5: 31A12c-PEG-13A8c bispecific (bispecific antibody)
scFv 1: DIQLTQSPSFLSASVGDRVTITCQASEDIESYLAWYQQKPGKAPKLLIYSASTLTSGVPSRFSGSGSGTEFTLTISSLQPEDFATYYCLGADDTTTVFGGGTKVEIKGGGGSGGGGSGGGGSGGGGSEVQLVESGGGLVQPGGSLRLSCTASGFSLSSYWLTWVRQAPGKGLEWVGTIATSSTYYASWAKGRFTISRDNSKNTLYLQLNSLRAEDTAVYYCARGLTTDYDLDLWGQGTLVTVSS
scFv 2: DIQLTQSPSFLSASVGDRVTITCQASQSISNELSWYQQKPGKAPKLLIYRASTLTSGVPSRFSGSGSGTEFTLTISSLQPEDFATYYCQQGYNSNDVDNVFGGGTKVEIKGGGGSGGGGSGGGGSGGGGSEVQLVESGGGLVQPGGSLRLSCTVSGIDLSSYDLSWVRQAPGKGLEWVGYIYTDSSTWYANWAKGRFTISRDNSKNTLYLQLNSLRAEDTAVYYCARGSTDYAFDTRLDLWGQGTLVTVSS
modifications: C-terminal azidohomoalanine (Aha) joined through a linear 20 kDa PEG to the Aha of the other scFv
notes: also called 31A12c-20KPEG-13A8c; 13A8c-PEG-31A12c
- IC50 (read off the curve) (monkey IL-12 (macaque) [4]): ~10 ng/mL and ~20 ng/mL
- IC50 (read off the curve) (interferon-gamma from NK92 cells, OD450) (monkey IL-12 (macaque) [5]): ~10 ng/mL
- Anti IL-23 EC50, batch A [6]: 2.94 ng/mL
- Anti IL-23 EC50, batch B [6]: 1.19 ng/mL
- Anti IL-23 EC50, batch C [6]: 2.04 ng/mL
- Anti IL-6 EC50, batch A (human IL-6): 0.082 ng/mL
- Anti IL-6 EC50, batch B (human IL-6): 0.064 ng/mL
- Anti IL-6 EC50, batch C (human IL-6): 0.136 ng/mL
- Kd [7]: 0.0918 nM
- koff [7]: 7.11e-05 s⁻¹
- kon [7]: 773000 M⁻¹ s⁻¹
- Kd (3×FLAG-IL-6): 0.215 nM
- koff (3×FLAG-IL-6): 5.14e-05 s⁻¹
- kon (3×FLAG-IL-6): 290000 M⁻¹ s⁻¹

B6: 35H4 chimeric mAb (antibody, V domains shown)
VH: QSLEESGGRLVTPGGSLTLTCTVSGIDLSDYDMSWVRQAPGKGLEWIGIVYDIGTIYYAPWAEGRFTISKTSTTMDLKMSSLTTEDTATYFCATEAPGYSDGDIWGPGTLVTVSS
VL: LVMTQTPSSVSAAVGGTVTINCQASETVGNNNRLSWYQQKPGQPPKLLIYGAATLASGVPSRFKGSGSGAHFTLTISNVQREDVATYVCGGYKDSTDVGFGGGTELEILR
notes: Rabbit/human chimeric IgG (human IgG1, kappa); HEK293; also called 35H4 clone
- binding result (IL-23 p40-p19-His [1]): binds
